According to paper PMC9482650, “Quantitative fragmentomics allow affinity mapping of interactomes” (Nature Communications, 2022):

Tests used:
Assay in all cases: holdup assay
Parameters in all cases: key: below the threshold = too weak to quantify, mostly under pKd 3.1 to 4
Settings in all cases: plain residues with an end cap or a label only (N-terminal biotin on a linker: ttds)
[1] = molecular target: T1, APBA2_2, Q99767
T1 sequence (Q99767 654-744, limits assumed, looked up): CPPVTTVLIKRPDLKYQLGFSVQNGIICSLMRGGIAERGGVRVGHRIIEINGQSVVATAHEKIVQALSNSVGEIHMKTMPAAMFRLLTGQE

[2] = molecular target: ARHGEF12, Q9NZN5-2
ARHGEF12, Q9NZN5-2, sequence (Q9NZN5 other isoform, or with tags, fused parts or gaps): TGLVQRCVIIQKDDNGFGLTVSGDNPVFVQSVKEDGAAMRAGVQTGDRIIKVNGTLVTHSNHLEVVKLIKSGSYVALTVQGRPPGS

[3] = molecular target: T2, CARD11, Q9BXL7
T2 sequence (Q9BXL7 662-765, limits assumed, looked up): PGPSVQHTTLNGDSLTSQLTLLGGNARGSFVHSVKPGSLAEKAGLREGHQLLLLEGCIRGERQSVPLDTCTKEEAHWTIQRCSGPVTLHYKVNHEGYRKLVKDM

[4] = molecular target: CASK, O14936
CASK, O14936, sequence (O14936 487-570): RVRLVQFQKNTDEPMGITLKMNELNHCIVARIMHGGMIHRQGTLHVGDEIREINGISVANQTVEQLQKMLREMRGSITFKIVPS

[5] = molecular target: T3, DFNB31_1, Q9P202
T3 sequence (Q9P202 135-233, limits assumed, looked up): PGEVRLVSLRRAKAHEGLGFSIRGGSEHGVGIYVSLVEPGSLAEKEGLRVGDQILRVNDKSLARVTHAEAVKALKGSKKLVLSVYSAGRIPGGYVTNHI

[6] = molecular target: FRMPD2_2, Q68DX3
FRMPD2_2, Q68DX3, sequence (Q68DX3 944-1038): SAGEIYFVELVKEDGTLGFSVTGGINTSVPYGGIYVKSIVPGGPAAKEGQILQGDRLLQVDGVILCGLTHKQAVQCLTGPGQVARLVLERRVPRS

[7] = molecular target: GRID2IP_1, A4D2P6
GRID2IP_1, A4D2P6, sequence (A4D2P6 1-87): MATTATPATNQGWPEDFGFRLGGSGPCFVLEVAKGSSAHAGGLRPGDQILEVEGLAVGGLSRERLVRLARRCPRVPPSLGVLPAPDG

[8] = molecular target: GRID2IP_2, A4D2P6
GRID2IP_2, A4D2P6, sequence (A4D2P6 272-370): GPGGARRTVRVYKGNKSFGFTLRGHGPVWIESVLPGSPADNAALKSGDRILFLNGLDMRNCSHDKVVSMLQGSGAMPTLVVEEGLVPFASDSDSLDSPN

[9] = molecular target: T4, GRIP1_2, Q9Y3R0
T4 sequence (Q9Y3R0 145-248, limits assumed, looked up): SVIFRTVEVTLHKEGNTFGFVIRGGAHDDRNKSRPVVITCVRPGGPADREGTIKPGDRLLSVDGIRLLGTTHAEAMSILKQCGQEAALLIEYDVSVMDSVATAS

[10] = molecular target: T5, GRIP1_3, Q9Y3R0
T5 sequence (Q9Y3R0 247-346, limits assumed, looked up): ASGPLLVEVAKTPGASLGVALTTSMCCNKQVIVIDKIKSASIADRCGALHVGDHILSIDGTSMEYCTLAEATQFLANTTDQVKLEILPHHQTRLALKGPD

[11] = molecular target: T6, GRIP1_7, Q9Y3R0
T6 sequence (Q9Y3R0 999-1096, limits assumed, looked up): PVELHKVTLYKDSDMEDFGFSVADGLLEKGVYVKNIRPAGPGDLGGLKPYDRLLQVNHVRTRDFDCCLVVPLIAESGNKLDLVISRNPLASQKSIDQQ

[12] = molecular target: GRIP2_4, Q9C0E4
GRIP2_4, Q9C0E4, sequence (Q9C0E4 446-548): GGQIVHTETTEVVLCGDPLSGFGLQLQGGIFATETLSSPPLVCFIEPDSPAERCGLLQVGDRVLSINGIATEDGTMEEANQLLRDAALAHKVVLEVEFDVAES

[13] = molecular target: IL16_1, Q14005
IL16_1, Q14005, sequence (Q14005 210-306): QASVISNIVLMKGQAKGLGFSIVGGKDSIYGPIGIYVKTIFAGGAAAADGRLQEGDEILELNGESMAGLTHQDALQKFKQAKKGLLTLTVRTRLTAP

[14] = molecular target: Inadl_6, Q8NI35
Inadl_6, Q8NI35, sequence (Q8NI35 1058-1167): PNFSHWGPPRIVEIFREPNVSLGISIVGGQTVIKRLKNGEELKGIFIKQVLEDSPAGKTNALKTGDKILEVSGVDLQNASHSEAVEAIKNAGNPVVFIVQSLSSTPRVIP

[15] = molecular target: Inadl_9, Q8NI35
Inadl_9, Q8NI35, sequence (Q8NI35 1530-1615): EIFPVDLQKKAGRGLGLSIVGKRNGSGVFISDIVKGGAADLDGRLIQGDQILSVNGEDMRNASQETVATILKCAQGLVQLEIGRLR

[16] = molecular target: LIMK2, P53671
LIMK2, P53671, sequence (P53671 143-248): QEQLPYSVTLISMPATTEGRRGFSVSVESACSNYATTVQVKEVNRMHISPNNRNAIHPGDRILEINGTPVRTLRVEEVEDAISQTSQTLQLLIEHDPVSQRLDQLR

[17] = molecular target: LNX1_2, Q8TBB1
LNX1_2, Q8TBB1, sequence (Q8TBB1 371-470): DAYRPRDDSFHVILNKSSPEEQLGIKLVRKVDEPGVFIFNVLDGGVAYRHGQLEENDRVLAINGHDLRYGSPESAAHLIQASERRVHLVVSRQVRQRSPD

[18] = molecular target: T7, LNX2_3, Q8N448
T7 sequence (Q8N448 463-564, limits assumed, looked up): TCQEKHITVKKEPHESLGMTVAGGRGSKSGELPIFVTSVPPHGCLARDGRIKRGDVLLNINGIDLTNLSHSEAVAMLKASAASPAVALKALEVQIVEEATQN

[19] = molecular target: MAGI1_1, Q96QZ7
MAGI1_1, Q96QZ7, sequence (Q96QZ7 1-106): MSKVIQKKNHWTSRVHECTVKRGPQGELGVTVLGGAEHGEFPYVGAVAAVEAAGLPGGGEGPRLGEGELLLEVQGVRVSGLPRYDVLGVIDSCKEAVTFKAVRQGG

[20] = molecular target: MAGI2_2, Q86UL8
MAGI2_2, Q86UL8, sequence (Q86UL8 410-522): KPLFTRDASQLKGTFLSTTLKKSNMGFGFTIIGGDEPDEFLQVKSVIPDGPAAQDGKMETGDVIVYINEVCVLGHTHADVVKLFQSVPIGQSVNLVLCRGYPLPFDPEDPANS

[21] = molecular target: MAGI2_5, Q86UL8
MAGI2_5, Q86UL8, sequence (Q86UL8 915-1017): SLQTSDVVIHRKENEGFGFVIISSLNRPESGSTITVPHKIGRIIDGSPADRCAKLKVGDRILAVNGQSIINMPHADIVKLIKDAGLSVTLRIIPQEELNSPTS

[22] = molecular target: T8, MPDZ_12, O75970
T8 sequence (O75970 1857-1958, limits assumed, looked up): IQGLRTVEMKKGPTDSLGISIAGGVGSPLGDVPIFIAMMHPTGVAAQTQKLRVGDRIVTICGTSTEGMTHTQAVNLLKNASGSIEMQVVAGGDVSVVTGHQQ

[23] = molecular target: T9, NHERF3_3, Q5T2W1
T9 sequence (Q5T2W1 238-333, limits assumed, looked up): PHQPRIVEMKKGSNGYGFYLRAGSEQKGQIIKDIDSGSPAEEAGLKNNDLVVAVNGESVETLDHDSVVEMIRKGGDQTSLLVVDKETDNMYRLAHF

[24] = molecular target: NHERF4_4, Q86UT5
NHERF4_4, Q86UT5, sequence (Q86UT5 464-550): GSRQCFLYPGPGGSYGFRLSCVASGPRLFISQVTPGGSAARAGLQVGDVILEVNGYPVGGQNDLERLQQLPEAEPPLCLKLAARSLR

[25] = molecular target: PDLIM1, O00151
PDLIM1, O00151, sequence (O00151 1-87): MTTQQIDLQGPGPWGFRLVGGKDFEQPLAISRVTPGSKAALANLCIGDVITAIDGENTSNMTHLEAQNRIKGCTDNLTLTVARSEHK

[26] = molecular target: T10, RADIL, Q96JH8
T10 sequence (Q96JH8 971-1071, limits assumed, looked up): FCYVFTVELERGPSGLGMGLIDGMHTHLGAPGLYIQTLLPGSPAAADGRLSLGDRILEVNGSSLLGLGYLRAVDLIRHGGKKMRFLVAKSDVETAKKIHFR

[27] = molecular target: T11, SIPA1L2, Q9P2F8
T11 sequence (Q9P2F8 945-1036, limits assumed, looked up): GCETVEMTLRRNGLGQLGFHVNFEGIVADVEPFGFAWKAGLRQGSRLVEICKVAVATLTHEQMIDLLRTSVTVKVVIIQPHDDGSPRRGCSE

B1: SLC16A1, P53985 (peptide)
chain: GGPKEEESPV
[1]
  pKd: below the threshold
[2]
  pKd: below the threshold
[3]
  pKd: below the threshold
[4]
  pKd: below the threshold
[5]
  pKd: 3.5
[6]
  pKd: 4.01
[7]
  pKd: below the threshold
[8]
  pKd: below the threshold
[9]
  pKd: below the threshold
[10]
  pKd: below the threshold
[11]
  pKd: below the threshold
[12]
  pKd: below the threshold
[13]
  pKd: 4.26
[14]
  pKd: below the threshold
[15]
  pKd: below the threshold
[16]
  pKd: below the threshold
[17]
  pKd: below the threshold
[18]
  pKd: below the threshold
[19]
  pKd: below the threshold
[20]
  pKd: below the threshold
[21]
  pKd: 3.62
[22]
  pKd: below the threshold
[23]
  pKd: below the threshold
[24]
  pKd: below the threshold
[25]
  pKd: below the threshold
[26]
  pKd: below the threshold
[27]
  pKd: below the threshold

B2: HPV51-E6, P26554 (peptide)
chain: RTRQRNETQV
[1]
  pKd: below the threshold
[2]
  pKd: 3.73
[3]
  pKd: below the threshold
[4]
  pKd: below the threshold
[5]
  pKd: 3.47
[6]
  pKd: 3.41
[7]
  pKd: below the threshold
[8]
  pKd: below the threshold
[9]
  pKd: 3.46
[10]
  pKd: below the threshold
[11]
  pKd: below the threshold
[12]
  pKd: below the threshold
[13]
  pKd: below the threshold
[14]
  pKd: below the threshold
[15]
  pKd: below the threshold
[16]
  pKd: below the threshold
[17]
  pKd: below the threshold
[18]
  pKd: below the threshold
[19]
  pKd: below the threshold
[20]
  pKd: 6.66
[21]
  pKd: 4.12
[22]
  pKd: below the threshold
[23]
  pKd: below the threshold
[24]
  pKd: below the threshold
[25]
  pKd: below the threshold
[26]
  pKd: 3.82
[27]
  pKd: below the threshold

B3: ABRAXAS2, Q15018 (peptide)
chain: DPRNTQTSQI
[1]
  pKd: below the threshold
[2]
  pKd: 4.44
[3]
  pKd: below the threshold
[4]
  pKd: 3.55
[5]
  pKd: 4.06
[6]
  pKd: below the threshold
[7]
  pKd: below the threshold
[8]
  pKd: 4.24
[9]
  pKd: 3.57
[10]
  pKd: below the threshold
[11]
  pKd: below the threshold
[12]
  pKd: below the threshold
[13]
  pKd: 3.59
[14]
  pKd: below the threshold
[15]
  pKd: below the threshold
[16]
  pKd: below the threshold
[17]
  pKd: below the threshold
[18]
  pKd: below the threshold
[19]
  pKd: below the threshold
[20]
  pKd: 3.59
[21]
  pKd: below the threshold
[22]
  pKd: below the threshold
[23]
  pKd: below the threshold
[24]
  pKd: below the threshold
[25]
  pKd: below the threshold
[26]
  pKd: below the threshold
[27]
  pKd: below the threshold
